Measured values reported in patent US8722856B2, “Anti-MUC1 antibody” (National University Corporation Hokkaido University, priority 2008, dated 2014).

Experiments:
[1] = test system: biotin-labeled T-47D culture supernatant; experiment: Affinity of antibody, Biacore, sensor chip SA; assay type: binding, human; conditions: biotin-labeled T-47D culture supernatant solid-phased
Protocol: In addition, a human breast cancer cultured cell strain T-47D (ATCC Number HTB-133) was cultured on a Dulbecco's modified Eagle medium (DMEM; manufacture by Invitrogen), the supernatant was concentrated with Amicon ultra-100 (manufactured by MILLIPORE), and substituted with a 20 mM HEPES buffer (pH 7.6) containing 0.15 M NaCl. Sulfo-NHS-Biotin (manufactured by PIERCE) was added to 200 μl of the T-47D culture supernatant, followed by reaction on ice for 2 hours. Thereafter, substitution with a 20 mM Tris buffer (pH 7.6) containing 0.15 M NaCl was performed with a PD-10 column (manufactured by GE Healthcare) to obtain a biotin-labeled T-47D culture supernatant.

[2] = test system: Biotin-Tn(DT*R)-20, -40, -60, -80, -100 (Compound Nos. 17-21); experiment: Tandem repeat dependency ELISA on Streptavidin solid-phased plate; assay type: binding
Protocol: To each well of a 384-well microtiter plate (manufactured by Nunc) 35 μl of a Tris buffer (50 mM Tris-HCl, pH 7.5) containing 0.35 μg of Streptavidin (manufactured by PIERCE) was added to perform immobilization at 4° C. for 16 hours. After these wells were washed with 90 μl of a washing solution (physiological saline containing 0.01% Tween 20) once, 200 μl of Block Ace (manufactured by Dainippon Sumitomo Pharma Co., Ltd.) was added, and this was allowed to stand at room temperature for 2 hours, to perform blocking (a Streptavidin solid-phased plate). […] Then, after each well was washed with 90 μl of a washing solution three times, 15 μl of TMB+-Substrate-Chromogen (manufactured by DAKO) was added to develop a color at room temperature for 30 minutes, 15 μl of 0.05 M sulfuric acid was added to stop the reaction, and absorbance at 450 nm was measured. […] Therefore, the antibody of the present invention can be said to have an affinity for Tn-100-mer biotin of lower than 1.0×10^−9 (M), and can be said to have the ability to bind to a Tn20-mer tandem structure fragment. More particularly, it can also be said that the antibody of the present invention has a ratio (A100/A20) of absorbance at 450 nm in the case of use of Tn20-mer biotin (A20) and absorbance at 450 nm in the case of use of Tn100-mer biotin (A100), of 2 or lower.

[3] = test system: normal tissue around a breast cancer; experiment: Immunological tissue staining; parameters: species or system human; conditions: formalin-fixed, paraffin-embedded normal tissue around the breast cancer
Excerpt: Immunological tissue staining of the 1B2 antibody to a piece of a human breast cancer tissue and a normal tissue around a breast cancer (BioCahin) which had been formalin-fixed and paraffin-embedded was implemented using the Vectastain elite ABC kit (manufactured by Vector Laboratories) and DAB (manufactured by Roche) according to the attached manual.

[4] = test system: human breast cancer cell strain T-47D; experiment: Binding of antibody to cancer cell with FACS; assay type: cell-based
Protocol: Whether the MUC1 protein expressed on a surface of a cancer cell membrane and the 1B2 antibody bound thereto was investigated by FACS. A human breast cancer cell strain T-47D (ATCC, HTB-133) and a human mammary gland epithelial cell 184A1 (ATCC, CRL-8798) which had been trypsinized with Trypsin (manufactured by Invitrogen) were washed once with a FACS buffer (PBS containing 5% FCS, 0.05% sodium azide), and suspended in 100 μl of a FACS buffer containing 10 μg/ml 1B2 antibody and the reaction was allowed to proceed at room temperature for 2 hours. The resultant reaction product was washed with a FACS buffer two times, and suspended in 200 μl of FITC-Goat Anti-Mouse IgG (manufactured by ZYMED), and the reaction was allowed to proceed at room temperature for 1 hour. After washing with a FACS buffer two times, analysis was performed by FACSAria (manufactured by BD). As a result, in T-47D, the 1B2 antibody greatly shifted the fluorescent signal of FACS (about 300-fold) as compared with a control mouse IgG2a antibody (manufactured by SIGMA-ALDRICH), while in 184A, fluorescent shift by 1B2 was scarcely seen (about 2-fold).

[5] = test system: human breast cancer cell strains (T-47D)
Protocol: Antibody-dependant cytotoxicity was analyzed by a chromium release test. Human peripheral mononuclear cell (PBMC) was separated from peripheral blood of a healthy person using Ficoll-paque PLUS (manufactured by GE Healthcare) according to the package insert. DMEM containing 10% FCS was added to the separated PBMC so that the number became 4×10^6/ml.
50 μl of physiological saline containing 1.85 MBq ^51Cr (manufactured by Perkin Elmer) was added to 200 μl of DMEM containing 1×10^6 human breast cancer cell strains (T-47D) and human mammary gland epithelial cell strains (184A1) and the reaction was allowed to proceed at 37° C. for 1 hour. Thereafter, cells were washed with 10 ml of DMEM three times, and DMEM was added to 5×10^4 cells/ml. […] Thereafter, 100 μl of PBMC was added and the reaction was allowed to proceed at 37° C. for 2 hours. Thereafter, the plate was centrifuged at 500×g for 5 minutes at room temperature and γ-ray of 100 μl of the supernatant was measured with ARC-7001 (manufactured by Aloka). Antibody-specific cytotoxicity (%) was obtained using the following calculation equation. Cytotoxicity(%)=(experimental value−natural release)/(maximum release−natural release)×100

- Kd ([1]; read-out: dissociation constant KD): 2.6 nM
B1: 1B2: mouse monoclonal anti-MUC1 antibody, isotype IgG2a, clone from immunization with 2,3-ST(DT*R)-20 conjugated to BSA (antibody, V domains shown)
VH: MEWIWIFLFILSGTAGVQSQVQLQQSGAELARPGASVKLSCKASGYTFTNYGLSWVKQRTGQGLEWIGENHPGSGIIYHNEKFRGKATLTADKSSSTAYVQLSSLTSEDSAVYFCARSSGTRGFAYWGQGTLVTVSA
VL: MKLPVRLLVLMFWIPASSSDVLMTQTPLSLPVSLGDQASISCRSSQSIVHSNGNTYLEWYLQKPGQSPKLLIYKVSNRFSGVPDRFSGSGSGTDFTLKISRVEAEDLGVYYCFQGSHGPWTFGGGTKLEIKRA
modifications: Antibody 1B2 VH sequence; Antibody 1B2 VL sequence
- Kd1 [1]: 0.0012 s⁻¹
- ka1 [1]: 470000 M⁻¹ s⁻¹
- reactivity by peptide chain length ([2]; Biotin-Tn(DT*R)-40, -60, -80, -100): approximately the same reactivity
- dependency on the length of the tandem repeat ([2]; absorbance at 450 nm, 20-mer to 100-mer): low dependency on a length of the tandem repeat
- stained image [3]: scarcely recognized
- reaction with breast cancer cell (FACS) [4]: strongly reacts
- shift of fluorescent signal of FACS as compared with control mouse IgG2a antibody ([4]; 10 μg/ml antibody): about 300 fold
- Antibody-specific cytotoxicity [5]: about 15%
